The text below walks through data of PMC3410491.

Test [1] concerns the target Chara myosin heavy chain (Chara corallina (Chara australis) (endogenous in internodal cells)). The experiment in a line: SEC; partially purified Chara myosin on Superdex 200HR in 50 mM Tris-HCl pH 8.0, 2 mM MgCl2, 1 mM EGTA, 4 mM ATP, 1 mM DTT; peak fraction No. 20 concentrated and run on SDS-PAGE, stained with coomassie brilliant blue; molar ratios roughly estimated.
The target is the same in test [2].
For test [3] the target is unchanged. This is another data set of the same source.

For “18 kDa polypeptide of Chara myosin (natural protein)”, the stoichiometry N (molar ratio to the heavy chain) in test [1] was 2.5.

On to “20 kDa polypeptide of Chara myosin (natural protein)”, for which the stoichiometry N (molar ratio to the heavy chain) in test [1] was 0.7.

“bovine calmodulin (from UniProt P62157 1-149) (natural protein)”: in test [2], the actin activated ATPase of column purified Chara myosin; increase on adding both Ca++ and calmodulin is 91%; the actin activated ATPase of column purified Chara myosin; increase on adding calmodulin amounted to 24%. In addition, in test [3], the sliding velocity of F-actin on Chara myosin in the in vitro motility assay; increase over the standard buffer on adding 0.1 mM Ca++ and 0.1 mg/ml calmodulin; reversible on washing out was found to be 35%; the sliding velocity of F-actin on Chara myosin in the in vitro motility assay; increase over the standard buffer on adding 0.1 mg/ml calmodulin came out at 24%.
